Data published in patent publication US12508311B2, “Fusion protein, and preparation method and use thereof” (SUN YAT-SEN UNIVERSITY, priority 2021, dated 2025).

Assays:
[1] = biological target: T1, wild-type KRas protein in HT29 (KRas wt) cells (Homo sapiens, UniProt P01116); assay: Western blot of KRas degradation in HT29 cells; format: cell-based; conditions: for degradation of KRas protein, concentration-dependency (western blot): 0-20 μg/ml
T1 construct: host or cells: HT29
Protocol: • (1) Source and culture of cells: human colorectal cancer cells HT29 (KRas wt) and human colorectal cancer cells HCT116 (KRas G13D) came from American Type Culture Collection (ATCC) (item number: HTB-38, CCL-247). HT29 and HCT116 cells were all cultured in the 1640 culture medium added with 10% fetal bovine serum (FBS), under 5% CO2 at 37° C. • (2) The colorectal cancer cells HCT116 and HT29 were respectively spread in six-well plates, 500,000 cells per well. […] 2,000 μL of DMEM complete culture solution was added into each well and mixed evenly, and the cells were cultured at 37° C. for 24 hours. • (3) The cells were cleaned with PBS twice, and 0.5 mL of 0.25% pancreatin was added into each well to digest the cells and make the cells fall off from the culture dish wall. Then, the digestion was stopped with 1 mL of complete culture solution per well, the cell suspension was collected into a 1.5 mL EP tube, and centrifuged at the room temperature and 300 g for 3 minutes to collect the cells. The cells were resuspended with 1 mL of PBS, and repeatedly centrifuged for one time. • (4) The supernatant was removed, and 100 μL of lysate was added in each group (item number: P0013G; purchased from Beyotime Biotechnology Company). The cells were lysed on ice, vortically vibrated every 5 minutes, and centrifuged at 4° C. and 12,000 pm for 30 minutes after being lysed for 30 minutes, and the supernatant was collected into a new 1.5 mL EP tube. • (5) The protein concentration was measured by the BCA method, and 30 μg of protein was taken from each group for SDS denaturation gel electrophoresis, transferred and blocked with 5% skim milk for 1 hour. Then, KRas (source: Proteintech; item number: 12063-1-AP) and β-tublin (source: Proteintech; item number: 10094-1-AP) primary antibodies were added by a ratio of 1:2,000, and shaken overnight at 4° C. to remove the antibodies. The membrane was washed with TBST for three times, 10 minutes each time. The rabbit secondary antibody labeled with corresponding HRP (source: TransGen Company; item number: HS101-01) was added for dilution with the ratio of 1:3,000 and incubated in shaking at the room temperature for 1 hour, and the membrane was cleaned with TBST for three times, 10 minutes each time. The antibody was luminously developed in the dark room of the ELC luminescent kit. Concentrations of all the primary antibodies were 1:2,000 (1 […] diluted in 2,000 μL of primary antibody diluent).
The protein concentrations were measured by BCA, and 30 μg of protein was taken respectively and stored in a refrigerator at −20° C. for later use. • (3) Western blot experiment was carried out on collected protein samples.

[2] = biological target: T2, KRas protein (Homo sapiens, UniProt P01116); assay: ELISA of binding level to the KRas protein in vitro; conditions: coated at 1 ng/μL, KRas 6.25-100 μg, compared with the control group
T2 construct: made in house
Protocol: 100 μL of coating solution was added into each well of 96-well ELISA plate to coat overnight at 4° C. • (3) Blocking: the ELISA plate was cleaned with a phosphate buffer solution (PBS) (PBS formula: 4 g of NaCl, 0.1 g of KCl, 1.815 g of disodium hydrogen phosphate dodecahydrate, and 0.12 g of […], dissolved in 400 mL of ultrapure water, with a constant volume of 500 mL for use) for 5 minutes each time. 300 μL of 5% (w/v) bovine serum albumin was added into each well, and blocked at 37° C. for 2 hours. • (4) Adding of the purified protein KRas: 6.25 μg, 12.5 μg, 25 μg, 50 μg and 100 μg of purified protein were respectively pre-mixed and diluted in 200 μL of PBS, and the diluted KRas protein was added into the wells in sequence, and slowly shaken at the room temperature for 5 hours. […] Main steps of the example were as follows: • (1) Coupling of ligand: the target coupling amount was calculated according to the following formula: […]

Molecule	degradation of KRas, influence of administration time ([1]; 10 and 20 μg/mL, 1, 2, 6, 12, 24 hours, cell line not restated (FIG. 12))	degradation of KRas protein, concentration-dependency (western blot) ([1]; HT29, 24 hours)	degradation effect on KRas at 10 ug/mL and 20 ug/mL ([1]; HT29, FIG. 11, 24 hours)	interaction with the KRas protein (ELISA, OD450-OD630) [2]
TKD: fusion protein: tumour-cell-penetrating peptide BR2, anti-KRas nanobody VHH and lysosome recognition peptide CTM; SEQ ID NO.4 (protein) RAGLQFPVGRLLRRLLRDVQLQESGGGLVQAGGSLRLSCVASGRTFSTYPTGWFRQAPGKEREFVARINLSGGITNYADSVKGRFTISRDNAKNTVYLQMNSLKPEDTAVYYCGGGSTTWAGGIPTNFDYWGQGTQVTVSSGRKFERQKILDQRFFE	could rapidly degrade KRas, and the degradation was time-dependent within a certain range	could cause degradation of expression levels of the wild-type and mutant-type KRas proteins in the colorectal cancer cells, and the degradation degree was increased with the increase of the concentration	the degradation effect on KRas was obvious	had a stronger interaction with the KRas protein
TKDm: control molecule of TKD with mutated CTM fragment (CTMmt) which could not be recognized by a lysosome; SEQ ID NO.5 (protein) RAGLQFPVGRLLRRLLRDVQLQESGGGLVQAGGSLRLSCVASGRTFSTYPTGWFRQAPGKEREFVARINLSGGITNYADSVKGRFTISRDNAKNTVYLQMNSLKPEDTAVYYCGGGSTTWAGGIPTNFDYWGQGTQVTVSSGRKFERAKILDARFFE		could not play a similar role		had a stronger interaction with the KRas protein
